Results: US20250340636A1 (Memorial Sloan Kettering, published 2025)

Tests used:
[1] = biological target: T1, human CHL-1 (residues 25-1096 with a C-terminal 10xHis tag) (human, UniProt O00533 25-1096); experiment: ELISA, plates coated with human CHL-1
T1 construct: range 25-1096; also called L1CAM-2; L1CAM2
T1 sequence: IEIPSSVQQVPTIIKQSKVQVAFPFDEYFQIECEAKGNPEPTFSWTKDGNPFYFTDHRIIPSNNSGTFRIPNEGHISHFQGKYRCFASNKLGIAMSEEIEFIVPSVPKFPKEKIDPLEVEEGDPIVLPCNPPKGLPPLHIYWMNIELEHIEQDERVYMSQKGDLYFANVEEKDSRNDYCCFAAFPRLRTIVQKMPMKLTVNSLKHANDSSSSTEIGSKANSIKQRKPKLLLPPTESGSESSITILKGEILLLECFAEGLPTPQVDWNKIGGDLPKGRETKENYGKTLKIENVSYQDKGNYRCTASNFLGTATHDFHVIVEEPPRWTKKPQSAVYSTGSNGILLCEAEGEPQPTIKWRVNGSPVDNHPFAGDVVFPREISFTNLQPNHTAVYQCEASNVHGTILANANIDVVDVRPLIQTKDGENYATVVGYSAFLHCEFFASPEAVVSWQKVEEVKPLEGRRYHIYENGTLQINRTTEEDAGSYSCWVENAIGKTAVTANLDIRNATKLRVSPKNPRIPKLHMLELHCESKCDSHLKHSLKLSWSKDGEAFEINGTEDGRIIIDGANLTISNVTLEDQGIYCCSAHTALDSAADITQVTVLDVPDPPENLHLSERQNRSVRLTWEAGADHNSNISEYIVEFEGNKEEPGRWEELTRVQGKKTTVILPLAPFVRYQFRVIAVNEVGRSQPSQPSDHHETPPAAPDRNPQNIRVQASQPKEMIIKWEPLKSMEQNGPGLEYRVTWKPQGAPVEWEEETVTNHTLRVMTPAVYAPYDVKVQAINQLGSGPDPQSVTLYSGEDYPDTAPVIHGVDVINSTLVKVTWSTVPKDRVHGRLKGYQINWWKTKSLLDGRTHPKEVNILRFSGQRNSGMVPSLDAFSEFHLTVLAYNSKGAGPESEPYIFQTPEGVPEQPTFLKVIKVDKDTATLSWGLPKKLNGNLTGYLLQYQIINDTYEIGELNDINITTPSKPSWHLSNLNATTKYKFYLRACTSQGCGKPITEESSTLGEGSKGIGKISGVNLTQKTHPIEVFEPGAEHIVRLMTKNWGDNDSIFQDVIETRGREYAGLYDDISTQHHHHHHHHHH
From the text: Selectivity. […] These proteins are other members of the L1 family of cell adhesion proteins and have between 49% and 55% sequence similarity with L1CAM in the extracellular portion. […] Positive control antibodies were included for each homolog. […] Epitope. The extracellular portion of L1CAM contains six immunoglobulin-like (Ig) domains and five fibronectin type III (FN) domains. To narrow down the binding region of the development candidate mAbs, truncated versions of human L1CAM protein (Ig domain, residues 21-605; FN domain, residues 606-1116; each with a C-terminal 6×His tag) were recombinantly produced, followed by a BLI experiment to test binding at 50 and 100 nM. […] 6×His tag is set forth in SEQ ID NO: 316.

[2] = biological target: T2, extracellular domain of human L1CAM (isoform 1) fused to a poly-histidine tag via its carboxy terminus (human, UniProt P32004 20-1120); experiment: summary table; binding to soluble human L1CAM (monomer)
T2 construct: Bought (Creative Biomart); also called L1CAM-His; huL1CAM protein
Procedure: Binding to L1CAM in Solution. Affinity to human L1CAM was measured by BLI using an Octet Red96e instrument. […] The data was prepared by reference well subtraction, and response curves were globally fit to a 1:1 Langmuir binding model.

human L1CAM on cells [3] = biological target: T3, human L1CAM on cells (human, UniProt P32004 20-1257); experiment: summary table; binding to cells with endogenous L1CAM (MDA-MB-231)
T3 construct: Overexpressed on stably transfected HEK293T cells or endogenous on MCF-7 and MDA-MB-231 cells; also called HEK293T-hL1CAM
Procedure: (§1) Binding to L1CAM on Cells. […] Cells were then incubated with an AlexaFluor 647 goat anti-human Fc secondary antibody. After washing, the stained cells were analyzed by flow cytometry.
(§2) The binding curves for each antibody and cell line normalized to secondary antibody only staining (MFI ratio) are shown in FIGS. 14A-14C. EC50 values were determined by non-linear regression (Table 70). […] It is possible that differences in the conformation and oligomerization of L1CAM, depending on the surface expression level, contributed to the binding pattern. […] An avidity effect due to high levels of L1CAM surface expression may have contributed to the strong binding observed in this experiment.

human L1CAM on cells [4] = biological target: T3, human L1CAM on cells; experiment: summary table; binding to cells overexpressing human L1CAM (HEK293T)
Procedure: as §1, §2

T2 sequence (P32004 20-1120): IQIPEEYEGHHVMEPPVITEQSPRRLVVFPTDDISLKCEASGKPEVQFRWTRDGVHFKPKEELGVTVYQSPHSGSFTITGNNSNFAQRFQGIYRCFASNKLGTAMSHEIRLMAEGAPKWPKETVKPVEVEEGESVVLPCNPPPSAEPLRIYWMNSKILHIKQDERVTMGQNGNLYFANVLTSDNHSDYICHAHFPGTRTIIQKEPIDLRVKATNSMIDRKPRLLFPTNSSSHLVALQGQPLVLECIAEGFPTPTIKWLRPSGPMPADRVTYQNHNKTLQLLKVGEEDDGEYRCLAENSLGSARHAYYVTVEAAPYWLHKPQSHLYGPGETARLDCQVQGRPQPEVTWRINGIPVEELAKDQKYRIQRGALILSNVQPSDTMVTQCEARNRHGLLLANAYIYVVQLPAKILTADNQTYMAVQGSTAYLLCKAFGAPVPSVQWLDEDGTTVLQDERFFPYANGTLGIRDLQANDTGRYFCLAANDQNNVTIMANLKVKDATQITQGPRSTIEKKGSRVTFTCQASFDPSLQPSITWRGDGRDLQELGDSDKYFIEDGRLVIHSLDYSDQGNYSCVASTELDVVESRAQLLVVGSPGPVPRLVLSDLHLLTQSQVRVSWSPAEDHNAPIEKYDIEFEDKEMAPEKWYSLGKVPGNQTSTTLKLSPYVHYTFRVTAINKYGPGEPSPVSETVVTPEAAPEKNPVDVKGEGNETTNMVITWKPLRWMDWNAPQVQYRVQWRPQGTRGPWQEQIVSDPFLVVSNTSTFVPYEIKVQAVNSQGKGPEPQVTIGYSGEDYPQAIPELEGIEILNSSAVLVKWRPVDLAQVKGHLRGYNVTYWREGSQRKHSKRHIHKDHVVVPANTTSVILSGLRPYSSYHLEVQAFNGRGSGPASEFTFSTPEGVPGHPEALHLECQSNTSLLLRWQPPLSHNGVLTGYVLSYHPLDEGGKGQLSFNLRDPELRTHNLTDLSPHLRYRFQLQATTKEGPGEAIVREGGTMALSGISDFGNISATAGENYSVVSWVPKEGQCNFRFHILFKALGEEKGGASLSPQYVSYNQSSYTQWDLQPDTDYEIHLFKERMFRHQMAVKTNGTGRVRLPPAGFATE
T3 sequence (P32004 20-1257): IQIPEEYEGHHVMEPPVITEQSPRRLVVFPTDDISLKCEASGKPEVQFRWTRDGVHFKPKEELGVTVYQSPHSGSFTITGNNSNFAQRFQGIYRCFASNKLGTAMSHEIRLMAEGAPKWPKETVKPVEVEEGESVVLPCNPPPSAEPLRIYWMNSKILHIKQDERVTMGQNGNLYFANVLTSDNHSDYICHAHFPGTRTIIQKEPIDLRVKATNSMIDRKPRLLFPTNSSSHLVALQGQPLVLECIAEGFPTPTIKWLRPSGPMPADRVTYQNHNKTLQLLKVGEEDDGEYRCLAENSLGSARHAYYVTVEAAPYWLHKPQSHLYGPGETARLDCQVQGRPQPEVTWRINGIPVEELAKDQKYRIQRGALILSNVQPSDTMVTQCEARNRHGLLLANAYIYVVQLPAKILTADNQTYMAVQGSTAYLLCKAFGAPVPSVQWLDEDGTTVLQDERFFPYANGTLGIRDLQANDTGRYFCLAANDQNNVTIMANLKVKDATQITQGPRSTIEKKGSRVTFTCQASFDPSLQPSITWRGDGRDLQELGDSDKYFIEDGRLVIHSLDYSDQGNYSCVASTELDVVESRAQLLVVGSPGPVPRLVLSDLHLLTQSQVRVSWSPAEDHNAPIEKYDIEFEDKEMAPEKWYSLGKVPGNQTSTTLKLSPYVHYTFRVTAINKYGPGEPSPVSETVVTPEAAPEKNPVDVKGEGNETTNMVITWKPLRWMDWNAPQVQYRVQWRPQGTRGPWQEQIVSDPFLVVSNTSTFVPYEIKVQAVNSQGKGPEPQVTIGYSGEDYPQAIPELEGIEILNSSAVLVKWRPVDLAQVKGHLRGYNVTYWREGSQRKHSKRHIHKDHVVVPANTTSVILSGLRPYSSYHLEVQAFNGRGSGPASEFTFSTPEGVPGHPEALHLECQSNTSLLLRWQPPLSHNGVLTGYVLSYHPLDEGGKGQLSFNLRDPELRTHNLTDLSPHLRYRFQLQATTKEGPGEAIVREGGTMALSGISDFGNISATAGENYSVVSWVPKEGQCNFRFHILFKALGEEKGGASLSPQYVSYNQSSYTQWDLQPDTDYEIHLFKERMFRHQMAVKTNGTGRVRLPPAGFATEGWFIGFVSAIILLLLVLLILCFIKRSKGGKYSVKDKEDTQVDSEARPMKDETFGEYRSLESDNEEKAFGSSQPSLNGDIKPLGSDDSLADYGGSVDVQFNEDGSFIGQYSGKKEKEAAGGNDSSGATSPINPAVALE

B1: TDI-Y-005 (antibody, human IgG1, kappa, V domains shown)
VH: EVQMVESGGGLVQPGGSLRLSCAAPGFIFSSYNMNWVRQAPGKGLEWVSYISSSSSTTYYADSVKGRFTISRDNAKNSLYLQMNSLRDEDTAVYYCASLYSGYDYYYYYGMDVWGQGTTVTVSS
VL: DIVMTQTPLSSPVSLGQPASISCRSSQSLVHSDGNTYLSWLQQRPGQPPRVLIYKISKRFSGVPDRFSGSGAGTDFTLKISRVEAEDVGVYYCMQATQFPFTFGPGTKVDIKR
notes: Human IgG1, kappa; also called human 14A10 mAb; fully human 14A10 mAb
In the case of B1, the binding result [1] is reported as “no binding (tested: 1 µM)”, the Kd [2] is reported as 4.3 nM and the koff [2] is reported as 0.00014 s⁻¹. It also gave a kon [2] of 33000 M⁻¹ s⁻¹, an EC50 (human L1CAM on cells [3]) of 7.1 nM and an EC50 (human L1CAM on cells [4]) of 2 nM.
